Tests used:
[1] = target: T1, human NT5E-Biotin (NT5E, GenbankID: NP_002517.1, position: 1-552) (human, UniProt P21589 27-552, biotin (site not stated)); assay: ELISA on SA-captured NT5E-Biotin; antibody 0 (blank); replicate 1
T1 construct: range 1-552; Biotinylated antigen captured on streptavidin-coated plates; also called HNT5E-Biotin; human NTSE-Biotin
T1 sequence (looked up): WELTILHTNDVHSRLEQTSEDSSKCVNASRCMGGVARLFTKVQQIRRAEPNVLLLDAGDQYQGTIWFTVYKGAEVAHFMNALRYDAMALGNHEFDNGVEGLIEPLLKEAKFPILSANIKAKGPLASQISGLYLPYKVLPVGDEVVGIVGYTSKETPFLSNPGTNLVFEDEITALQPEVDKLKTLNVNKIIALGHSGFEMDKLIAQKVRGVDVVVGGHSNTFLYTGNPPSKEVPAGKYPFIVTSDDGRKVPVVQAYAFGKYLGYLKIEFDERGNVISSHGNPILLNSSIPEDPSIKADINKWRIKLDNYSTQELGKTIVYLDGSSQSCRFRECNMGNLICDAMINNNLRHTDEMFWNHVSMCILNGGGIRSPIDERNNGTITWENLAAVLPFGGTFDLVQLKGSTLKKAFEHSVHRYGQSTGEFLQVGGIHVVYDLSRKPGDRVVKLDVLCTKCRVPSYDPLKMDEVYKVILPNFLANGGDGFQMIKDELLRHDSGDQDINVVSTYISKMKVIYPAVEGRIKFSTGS
Protocol: (§1) Experimental steps: a microplate was coated with streptavidin at 2 μg/mL, and then the microplate was incubated at 4° C. for 12 hours. The antigen-coated microplate was rinsed for once with PBST after incubation, and then blocked with a PBST solution containing 1% BSA as a microplate blocking solution for 2 hours. After blocking, the microplate was washed 3 times with PBST. […] The antibody serially diluted with the PBST solution was added to the wells of the microplate. The microplate containing the test antibodies was incubated at 37° C. for 30 minutes, and then washed 3 times with PBST. After the plate was washed, the secondary antibody working solution of HRP-labeled goat anti-human IgG (H+L) (Jackson, Cat. No. 109-035-088) diluted in a ratio of 1:5000 or HRP-labeled goat anti-mouse IgG (H+L) (Jackson, Cat. No. 115-035-062) diluted in a ratio of 1:5000 was added, and then the plate was incubated at 37° C. for 30 minutes. After incubation, the plate was washed 4 times with PBST, TMB (Neogen, 308177) was added in the dark for color development for 5 min, and then a stop solution was added to terminate chromogenic reaction. The microplate was put into a microplate reader immediately, and the OD value of each well in the microplate was read at the light wavelength of 450 nm. The data were analyzed by SoftMax Pro 6.2.1.

[2] = target: T1, human NT5E-Biotin (NT5E, GenbankID: …); assay: ELISA on SA-captured NT5E-Biotin; antibody 0 (blank); replicate 2
Protocol: as §1

[3] = target: T1, human NT5E-Biotin (NT5E, GenbankID: …); assay: ELISA on SA-captured NT5E-Biotin; antibody 0.333 ug/mL; replicate 1
Protocol: as §1

[4] = target: T1, human NT5E-Biotin (NT5E, GenbankID: …); assay: ELISA on SA-captured NT5E-Biotin; antibody 0.333 ug/mL; replicate 2
Protocol: as §1

[5] = target: T1, human NT5E-Biotin (NT5E, GenbankID: …); assay: ELISA on SA-captured NT5E-Biotin; antibody 0.333 ug/mL diluted 1:3; replicate 1
Protocol: as §1

[6] = target: T1, human NT5E-Biotin (NT5E, GenbankID: …); assay: ELISA on SA-captured NT5E-Biotin; antibody 0.333 ug/mL diluted 1:3; replicate 2
Protocol: as §1

[7] = target: T1, human NT5E-Biotin (NT5E, GenbankID: …); assay: ELISA on SA-captured NT5E-Biotin; antibody 0.333 ug/mL diluted 1:9; replicate 1
Protocol: as §1

[8] = target: T1, human NT5E-Biotin (NT5E, GenbankID: …); assay: ELISA on SA-captured NT5E-Biotin; antibody 0.333 ug/mL diluted 1:27; replicate 2
Protocol: as §1

[9] = target: T1, human NT5E-Biotin (NT5E, GenbankID: …); assay: ELISA on SA-captured NT5E-Biotin; antibody 0.333 ug/mL diluted 1:81; replicate 1
Protocol: as §1

[10] = target: T1, human NT5E-Biotin (NT5E, GenbankID: …); assay: ELISA on SA-captured NT5E-Biotin; antibody 0.333 ug/mL diluted 1:81; replicate 2
Protocol: as §1

[11] = target: T1, human NT5E-Biotin (NT5E, GenbankID: …); assay: ELISA on SA-captured NT5E-Biotin; antibody 0.333 ug/mL diluted 1:243; replicate 1
Protocol: as §1

[12] = target: T1, human NT5E-Biotin (NT5E, GenbankID: …); assay: ELISA on SA-captured NT5E-Biotin; antibody 0.333 ug/mL diluted 1:243; replicate 2
Protocol: as §1

[13] = target: T1, human NT5E-Biotin (NT5E, GenbankID: …); assay: ELISA on SA-captured NT5E-Biotin; antibody 0.333 ug/mL diluted 1:729; replicate 1
Protocol: as §1

[14] = target: T1, human NT5E-Biotin (NT5E, GenbankID: …); assay: ELISA on SA-captured NT5E-Biotin; antibody 0.333 ug/mL diluted 1:729; replicate 2
Protocol: as §1

B1: murine anti-CD73 monoclonal antibody 19F3 (antibody, V domains shown)
VH: EVQLQQSGPELVKPGASMRMSCKASGYSFTGYTMNWVKQSHGKNLEWIGLINPYNAGTSYNQKFKGKATLTVDKSSSTAYMELLSLTSEDSAVYYCARSEYRYGGDYFDYWGQGTTLTVSS
VL: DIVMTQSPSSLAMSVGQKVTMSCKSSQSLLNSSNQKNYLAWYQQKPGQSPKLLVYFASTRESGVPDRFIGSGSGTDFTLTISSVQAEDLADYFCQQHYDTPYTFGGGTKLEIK
notes: Mouse hybridoma antibody purified on protein A; also called murine antibody 19F3; antibody secreted by hybridoma cell line LT014 (CD73-19F3)
OD 450 nm [1]: 0.06 OD450 | OD 450 nm [2]: 0.062 OD450 | OD 450 nm [3]: 2.71 OD450 | OD 450 nm [4]: 2.74 OD450 | OD 450 nm [5]: 2.74 OD450 | OD 450 nm [6]: 2.76 OD450 | OD 450 nm [7]: 2.57 OD450 | OD 450 nm [8]: 2.36 OD450 | OD 450 nm [9]: 1.69 OD450 | OD 450 nm [10]: 1.77 OD450 | OD 450 nm [11]: 1 OD450 | OD 450 nm [12]: 1 OD450 | OD 450 nm [13]: 0.446 OD450 | OD 450 nm [14]: 0.47 OD450
